# Assay results published in patent US20220251174A1 (published 2022).
# Target: SARS-CoV-2 Spike S2-hFc (SARS-CoV-2, UniProt P0DTC2 686-1213)
# Test: Octet BLI; Fab analyte over S2-hFc on AHC sensors; steady-state analysis
# Method: All label-free interaction analysis was performed on an Octet HTX biolayer interferometry-based detection system (ForteBio/Sartorius, Göttingen, Germany) equipped with various sensor types; AR (amine-reactive), SAX (streptavidin-coated), or AHC (anti-human-Fc capture) sensors. Experiments were conducted at 25° C. in a run buffer of PBS containing 0.05% Tween™-20 and 0.5 mg/mL BSA.
# Binding affinity estimates. Different assay formats were used to estimate the binding affinities of Ab/target bimolecular interactions. In one assay format, Fab was titrated as monovalent analyte (typically as a 3-fold series with a top concentration of 3 μM, and at least one concentration in duplicate) over AHC sensors coated with human-Fc-fused targets RBD-hFc, S1-hFc or S2-hFc as ligands (Sino Biological). […] Global affinity estimates were determined using the Kinetics module of Fortebio's Data Analysis HT software version 12.0.1.55. Data were processed by subtracting the responses of a buffer analyte sample and fitting these referenced data globally to a simple 1:1 Langmuir binding model to deduce the KD value from the ratio of the kinetic rate constants (KD=kd/kₐ), where kd and kₐ are the dissociation and association rate constants, respectively. […] All samples were measured on duplicate sensors.
binder,measurement,value
"2-A6 Fab (Fab, V domains shown) VH: QVTLRESGPALVKPTQTLTLTCTFSGFSLNTRGMSVSWIRQPPGKALEWLALIDWEDDKFYRTSLMTRLTISKDIFKNQVVLTMTNVDPVDTGTYYCARTYSVGVKYFGMDVWGQGTTVTVSS VL: SSELTQDPAVSVALGQTVRITCQGDSLRNYYASWYRQEPGQAPILLIYGGNYRPSGIPDRFSGSSSGNTASLTITGAQAEDEADYYCNSRDSSGNHVVFGGGTKLTVL",Kd,913 nM
